Measured values from PMC8497620, “Structure and inhibition of Cryptococcus neoformans sterylglucosidase to develop antifungal agents” (Nature Communications, 2021).

The molecules below were run against T1, C. neoformans Sgl1 (Cryptococcus neoformans var. grubii, UniProt J9W473) (assay: Sgl1 inhibition with res-glp substrate (HTS, single-compound dose-response)). Conditions: res-glp as substrate (100 µM), primary screen; read-out: IC50 against Sgl1.
Format: biochemical
Procedure: Resorufin-3β-D-glucopyranoside (res-glp, Sigma-Aldrich) enzyme kinetic assays were performed according to methods described by Urban et al.[16] with modifications. Reaction buffer contained 50 mM citric acid, 176 mM K2HPO4, pH 6, 0.01% Tween-20, and 10 mM sodium taurocholate. The reactions were carried out in black 96-well plates using 20 ng of enzyme with 100 μM res-glp substrate. In all, 10 μL/well of res-glp substrate was added to each well and the reaction was initiated by adding 20 μL enzyme (20 ng). After incubation at 37 °C for 30–40 min, the fluorescence was read at an excitation of 570 (±10) nm and an emission of 610 (±10) nm on a VersaMax™ Microplate Reader from Molecular Devices. A standard curve was prepared with serial dilutions of the free fluorophore, resorufin, in the same volume of assay buffer.
A ChemBridge DIVERSet-CL library (San Diego, CA) containing 50,000 compounds was screened to identify small molecules that inhibit C. neoformans Sgl1. The library was prepared in a 96-well plate format containing a cocktail of 10 compounds per well at 1 mM each in 100% DMSO. The cocktail plates were first diluted to 100 μM each (1:10 dilution in Dulbecco’s phosphate-buffered saline, DPBS) resulting in 10% DMSO. In order to screen the compound cocktails at […] in 1% DMSO in a final reaction volume of 30 μL an aliquot of 3 μL was added to 17 μL of buffer containing 20 ng of enzyme and the reaction was started adding 10 μL of 100 μM res-glp. A negative control without enzyme and positive controls with and without DMSO were prepared. The plates were incubated at 37 °C for 40 min.
The Z′-factor was used for the assessment of the efficiency of the HTS assay for each individual plate. Values greater than 0.5 has been considered as an indicator of an excellent screening assay quality.

T1 sequence (J9W473 entry or part of it): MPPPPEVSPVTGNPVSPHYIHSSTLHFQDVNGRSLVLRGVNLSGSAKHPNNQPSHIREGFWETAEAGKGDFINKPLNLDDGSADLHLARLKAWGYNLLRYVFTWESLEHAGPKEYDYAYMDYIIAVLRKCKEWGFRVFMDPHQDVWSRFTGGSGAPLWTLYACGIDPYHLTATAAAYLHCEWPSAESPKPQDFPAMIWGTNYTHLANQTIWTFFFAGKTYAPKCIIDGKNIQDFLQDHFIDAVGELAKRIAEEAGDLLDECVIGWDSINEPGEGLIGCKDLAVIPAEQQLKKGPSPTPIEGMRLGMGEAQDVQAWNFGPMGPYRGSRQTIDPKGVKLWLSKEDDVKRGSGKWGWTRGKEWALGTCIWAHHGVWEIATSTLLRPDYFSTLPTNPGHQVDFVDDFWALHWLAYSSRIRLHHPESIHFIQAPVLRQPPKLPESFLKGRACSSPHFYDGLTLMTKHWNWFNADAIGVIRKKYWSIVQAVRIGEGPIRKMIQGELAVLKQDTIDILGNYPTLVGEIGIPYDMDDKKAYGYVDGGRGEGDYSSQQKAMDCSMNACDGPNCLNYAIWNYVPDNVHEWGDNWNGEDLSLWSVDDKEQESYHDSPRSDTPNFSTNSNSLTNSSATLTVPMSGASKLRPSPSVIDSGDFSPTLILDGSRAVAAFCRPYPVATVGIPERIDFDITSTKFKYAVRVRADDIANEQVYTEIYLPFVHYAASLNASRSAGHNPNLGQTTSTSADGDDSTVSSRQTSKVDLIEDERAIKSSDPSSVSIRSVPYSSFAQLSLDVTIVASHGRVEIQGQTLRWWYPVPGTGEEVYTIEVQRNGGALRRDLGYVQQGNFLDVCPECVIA

| Molecule | IC50 [µM] |
| --- | --- |
| Cc1cc(NCc2ccc3[nH]c(C)c(C)c3c2)nc(N)n1 [Hit 4] | 4 |
| COc1cc(CNCc2cc(C)cc3c(C)c(C)[nH]c23)cc2c1OCO2 [Hit 12] | 2 |
| CC(C)Oc1cccc(C(=O)C2CCCN(C3CCSCC3)C2)c1 (stereo not drawn) [Hit 3] | 4 |
| CN(C)CCN(Cc1ccsc1)Cc1ccc2nonc2c1 [Hit 11] | 4 |
| CCC(Sc1nc2ccccc2o1)C(=O)N1CCc2[nH]cnc2C1 (stereo not drawn) [Hit 8] | 4 |
| O=C(c1ccc(-c2ccccc2)c(F)c1)C1CCCN(C2CCSCC2)C1 (stereo not drawn) [Hit 2] | 4 |

The molecules below were run against T1, C. neoformans Sgl1 (assay: H/D exchange mass spectrometry mapping of disordered regions). Conditions: H/D exchange MS of C. neoformans Sgl1; per peptide (amino acids Start-End, Sequence); Fig S2a.
Procedure: HDX-MS reactions were performed in a similar manner as is outlined in previous publications. HDX reactions were conducted in a final reaction volume of 50 µL with a final Sgl1 concentration of 0.6 µM (30 pmol). Exchange was carried out in triplicate for a single time point (3 s at 4 °C). Hydrogen deuterium exchange was initiated by the addition of 48 µL of D2O buffer (100 mM NaCl (20 mM pH 6.0 Bis-Tris), 90.5% D2O (V/V) to 1 µL of protein and 1 µL of H2O. Exchange was terminated by the addition of ice-cold acidic quench buffer, resulting in a final concentration of 0.6 M guanidine-HCl and 0.9% FA post quench. Samples were immediately frozen in liquid nitrogen and stored at −80 °C. Fully deuterated samples were generated by first denaturing the protein in 2 M guanidine for 5 min at 20 °C. Following denaturing, 48 µL of D2O buffer was added to the denatured protein and allowed to incubate for 5 min at 20 °C before quenching. Samples were flash frozen and stored at −80 °C until injection onto the ultra-performance liquid chromatography (UPLC) system for proteolytic cleavage, peptide separation, and injection onto a QTOF for mass analysis.
Protein sample was rapidly thawed and injected onto a UPLC system kept in a cold box at 2 °C. The protein was run over two immobilized pepsin columns (Applied Biosystems; Porosyme 2-3131-00) and the peptides were collected onto a VanGuard Precolumn trap (Waters). The trap was eluted in line with an ACQUITY 1.7 μm particle, 100 × 1 mm^2 C18 UPLC column (Waters), using a gradient of 5–36% B (Buffer A 0.1% formic acid, Buffer B 100% acetonitrile) over 16 min. MS experiments were performed on an Impact QTOF (Bruker) and peptide identification was done by running tandem MS (MS/MS) experiments run in data-dependent acquisition mode. The resulting MS/MS dataset was analyzed using PEAKS7 (PEAKS) and a false discovery rate was set at 1% using a database of purified proteins and known contaminants. HDExaminer Software (Sierra Analytics) was used to automatically calculate the level of deuterium incorporation into each peptide. All peptides were manually inspected for correct charge state and presence of overlapping peptides. Deuteration levels were calculated using the centroid of the experimental isotope clusters, with correction for back exchange generated using the fully deuterated sample. The mass spectrometry proteomics data have been deposited to the ProteomeXchange Consortium via the PRIDE partner repository[31] with the dataset identifier PXD024981.

| Molecule | % Deuterium incorporation, Average [%] |
| --- | --- |
| AVRVRADDIANE | 16.0 |
| WSVDDKEQESY | 71.0 |
| NASRSAGHNPNLGQTTSTSADGDDSTVSSRQTSKVDL | 102.1 |
| LVLRGVN | 5.8 |
| VQRNGGAL | 39.7 |
| AVIPAEQQLKKGPSPTPIEG | 30.1 |
| ATLTVPMSGASKLRPSPSVIDSGDFSPTL | 63.6 |
| VRIGEGPIRKMIQGEL | 21.0 |
| FCRPYPVATVGIPERIDF | 5.0 |
| SLEHAGPKEYDYA | 6.0 |
| YAIWNYVPDNVHEWGDN | 15.4 |
| RAIKSSDPSSVS | 104.6 |
| RVFMDPHQDV | 5.4 |
| CVIGWDSINEPGEGLIGCKDL | 4.2 |
| STVSSRQTSKVDL | 98.6 |
| DITSTKFKYAVRVRADDIANE | 9.0 |
| VIGWDSINEPGEGL | 4.0 |
| TGGSGAPLWTL | 5.6 |
| RWWYPVPGTGEEV | 29.8 |
| WAHHGVWEI | 2.5 |
| NADAIGVIRKKYWSIVQ | 33.7 |
| IYLPFVHYAASL | 21.4 |
| AVLKQDTID | 23.0 |

| Molecule | % Deuterium incorporation, Average [%] |
| --- | --- |
| NASRSAGHNPNLGQTTSTSADGDDSTVSSRQTSKVDLIE | 100.2 |
| LRPDYFSTLPTNPGHQVDF | 37.3 |
| AYSSRIRLHHPESIHFI | 3.1 |
| IGCKDLAVIPAEQQLKKGPSPTPIEG | 24.8 |
| YTHLANQ | 4.9 |
| RFTGGSGAPLWTL | 6.3 |
| DVTIVASHGRVEIQGQTLRWWYPVPGTGE | 20.6 |
| SYHDSPRSDTPNF | 96.9 |
| QDVNGRS | 17.0 |
| VIGWDSINEPGEGLIG | 3.9 |
| YAIWNYVPDNVHE | 15.0 |
| STNSNSLTNSSA | 102.0 |
| VTIVASHGRVEIQGQTLRWWYPVPGTGEEV | 18.9 |
| VLKQDTIDILGNYPTL | 10.8 |
| VTIVASHGRVEIQGQTLRWWYPVPGTGEE | 22.0 |
| DITSTKFKYAVRVRADD | 4.2 |
| WESLEHAGPKEYDY | 7.1 |
| VTIVASHGRVEIQGQTLRWWYPVPGTGEEVY | 18.9 |
| HDSPRSDTPNF | 91.2 |
| LVLRGVNLSGSAKHPNNQPSHIREGF | 33.7 |
| WNFGPMGPYRGSRQTIDPKG | 43.4 |
| NYVPDNVHEWGDN | 41.1 |
| STLPTNPGHQVD | 53.3 |

| Molecule | % Deuterium incorporation, Average [%] |
| --- | --- |
| ERAIKSSDPSS | 103.4 |
| YVQQGNF | 102.8 |
| ILGNYPTL | 27.3 |
| VGEIGIPYDMD | 24.9 |
| SRSAGHNPNLGQTTSTSADGDDSTVSSRQTSKVDL | 101.7 |
| GQTTSTSADGDDSTVSSRQTSKVDL | 102.4 |
| CIWAHHGVWE | 1.8 |
| DVTIVASHGRVEIQGQTL | 21.1 |
| RAIKSSDPSS | 103.0 |
| WAHHGVWE | 1.5 |
| EIATSTL | 59.2 |
| VIRKKYWSIVQA | 46.8 |
| LRWWYPVPGTGEEV | 23.5 |
| IEDERAIKSSDPSSVS | 106.2 |
| PVLRQPPKLPESFL | 40.7 |
| KKGPSPTPIEG | 6.7 |
| VGIPERIDF | 8.3 |
| TLMTKHWNWFNA | 34.8 |
| VTIVASHGRVEIQGQTL | 23.2 |
| RGVNLSGSAKHPNNQPSH | 44.0 |
| NYAIWNYVPDNVHE | 17.1 |
| DVQAWNFGPMGPYRGSRQTIDPKGVKL | 26.1 |
| YVQQGNFL | 101.5 |
